Results: patent publication US20070065429A1 (Biogen, published 2007)

Assays:
[1] = molecular target: T1, AP-Aβ (UniProt P05187 23-511; P05067 672-699); assay: AP fusion binding to COS cells expressing NgR, saturation
T1 construct: Fusion of alkaline phosphatase and Aβ(1-28); The range 1-28 is Aβ numbering; also called AP-Aβ(1-28); soluble AP-Aβ(1-28)

[2] = molecular target: T2, Fluo-Aβ42 (UniProt P05067 672-713, 'Fluo' label (kind and position not stated)); assay: Fluo-Aβ42 incubated 2 h at 4° C. with SKNMC cells expressing human NgR-1
T2 construct: also called fibrillogenic Aβ42 peptide

T1 sequence (P05187 other isoform, or with tags, fused parts or gaps): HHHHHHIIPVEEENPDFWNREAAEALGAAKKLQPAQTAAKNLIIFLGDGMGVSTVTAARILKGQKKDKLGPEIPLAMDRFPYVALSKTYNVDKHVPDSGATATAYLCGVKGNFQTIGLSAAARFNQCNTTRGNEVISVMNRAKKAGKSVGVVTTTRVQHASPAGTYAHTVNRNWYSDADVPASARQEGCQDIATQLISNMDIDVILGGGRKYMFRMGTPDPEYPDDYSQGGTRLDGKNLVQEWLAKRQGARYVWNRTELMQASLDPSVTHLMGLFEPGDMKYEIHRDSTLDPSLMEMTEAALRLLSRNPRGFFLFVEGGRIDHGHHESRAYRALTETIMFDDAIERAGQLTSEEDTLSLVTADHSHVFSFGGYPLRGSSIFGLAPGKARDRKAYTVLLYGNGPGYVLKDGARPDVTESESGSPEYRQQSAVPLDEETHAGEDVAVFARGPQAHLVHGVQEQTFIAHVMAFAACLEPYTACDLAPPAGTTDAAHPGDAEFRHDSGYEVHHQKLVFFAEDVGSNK

Row | Binder | Kd [1] | binding result [2]
1 | NgR expressed in COS cells (receptor) CPGACVCYNEPKVTTSCPQQGLQAVPVGIPAASQRIFLHGNRISHVPAASFRACRNLTILWLHSNVLARIDAAAFTGLALLEQLDLSDNAQLRSVDPATFHGLGRLHTLHLDRCGLQELGPGLFRGLAALQYLYLQDNALQALPDDTFRDLGNLTHLFLHGNRISSVPERAFRGLHSLDRLLLHQNRVAHVHPHAFRDLGRLMTLYLFANNLSALPTEALAPLRALQYLRLNDNPWVCDCRARPLWAWLQKFRGSSSEVPCSLPQRLAGRDLKRLAANDLQGCAVATGPYHPIWTGRATDEEPLGLPKCCQPDAADKASVLEPGRPASAGNALKGRVPPGDSPPGNGSGPRHINDSPFGTLPGSAEPPLTAVRPEGSEPPGFPTSGPRRRPGCSRKNRTRSHCRLGQAGSGGGGTGDSEGS | 60 nM | 
2 | human NgR-1 expressed on human SKNMC cells (receptor, UniProt Q9BZR6 27-447, looked up, whole, on cells) CPGACVCYNEPKVTTSCPQQGLQAVPVGIPAASQRIFLHGNRISHVPAASFRACRNLTILWLHSNVLARIDAAAFTGLALLEQLDLSDNAQLRSVDPATFHGLGRLHTLHLDRCGLQELGPGLFRGLAALQYLYLQDNALQALPDDTFRDLGNLTHLFLHGNRISSVPERAFRGLHSLDRLLLHQNRVAHVHPHAFRDLGRLMTLYLFANNLSALPTEALAPLRALQYLRLNDNPWVCDCRARPLWAWLQKFRGSSSEVPCSLPQRLAGRDLKRLAANDLQGCAVATGPYHPIWTGRATDEEPLGLPKCCQPDAADKASVLEPGRPASAGNALKGRVPPGDSPPGNGSGPRHINDSPFGTLPGSAEPPLTAVRPEGSEPPGFPTSGPRRRPGCSRKNRTRSHCRLGQAGSGGGGTGDSEGS |  | binds
